Laboratory results: patent US20240018502A1
Numbering of substitutions follows the chain as printed. Names may count otherwise. Blank lines part the entries; values can stand above or below the binder they belong to.

Target: plasma purified human complement protein C3 (human) (UniProt P01024)
Test: cell-based or functional assay

plasma purified human complement protein C3 (human), sequence (P01024 23-667, chain 1 of 2): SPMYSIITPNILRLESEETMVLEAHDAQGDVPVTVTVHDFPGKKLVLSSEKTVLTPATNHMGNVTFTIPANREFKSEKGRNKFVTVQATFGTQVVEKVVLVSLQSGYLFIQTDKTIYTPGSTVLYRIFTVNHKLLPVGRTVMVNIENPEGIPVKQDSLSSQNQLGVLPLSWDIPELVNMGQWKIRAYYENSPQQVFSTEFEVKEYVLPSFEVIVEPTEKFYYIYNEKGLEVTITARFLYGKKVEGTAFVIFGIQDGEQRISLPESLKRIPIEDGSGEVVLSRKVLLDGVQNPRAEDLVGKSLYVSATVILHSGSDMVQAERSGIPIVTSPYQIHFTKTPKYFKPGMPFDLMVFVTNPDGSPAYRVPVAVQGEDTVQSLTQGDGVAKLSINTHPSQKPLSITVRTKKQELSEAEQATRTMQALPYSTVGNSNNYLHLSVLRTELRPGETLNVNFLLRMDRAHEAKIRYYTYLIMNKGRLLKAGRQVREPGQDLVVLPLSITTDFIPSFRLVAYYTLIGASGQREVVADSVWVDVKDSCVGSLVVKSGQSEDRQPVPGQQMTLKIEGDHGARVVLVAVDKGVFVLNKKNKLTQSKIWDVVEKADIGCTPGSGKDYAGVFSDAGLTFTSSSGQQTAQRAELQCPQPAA
plasma purified human complement protein C3 (human), sequence (P01024 672-1663, chain 2 of 2): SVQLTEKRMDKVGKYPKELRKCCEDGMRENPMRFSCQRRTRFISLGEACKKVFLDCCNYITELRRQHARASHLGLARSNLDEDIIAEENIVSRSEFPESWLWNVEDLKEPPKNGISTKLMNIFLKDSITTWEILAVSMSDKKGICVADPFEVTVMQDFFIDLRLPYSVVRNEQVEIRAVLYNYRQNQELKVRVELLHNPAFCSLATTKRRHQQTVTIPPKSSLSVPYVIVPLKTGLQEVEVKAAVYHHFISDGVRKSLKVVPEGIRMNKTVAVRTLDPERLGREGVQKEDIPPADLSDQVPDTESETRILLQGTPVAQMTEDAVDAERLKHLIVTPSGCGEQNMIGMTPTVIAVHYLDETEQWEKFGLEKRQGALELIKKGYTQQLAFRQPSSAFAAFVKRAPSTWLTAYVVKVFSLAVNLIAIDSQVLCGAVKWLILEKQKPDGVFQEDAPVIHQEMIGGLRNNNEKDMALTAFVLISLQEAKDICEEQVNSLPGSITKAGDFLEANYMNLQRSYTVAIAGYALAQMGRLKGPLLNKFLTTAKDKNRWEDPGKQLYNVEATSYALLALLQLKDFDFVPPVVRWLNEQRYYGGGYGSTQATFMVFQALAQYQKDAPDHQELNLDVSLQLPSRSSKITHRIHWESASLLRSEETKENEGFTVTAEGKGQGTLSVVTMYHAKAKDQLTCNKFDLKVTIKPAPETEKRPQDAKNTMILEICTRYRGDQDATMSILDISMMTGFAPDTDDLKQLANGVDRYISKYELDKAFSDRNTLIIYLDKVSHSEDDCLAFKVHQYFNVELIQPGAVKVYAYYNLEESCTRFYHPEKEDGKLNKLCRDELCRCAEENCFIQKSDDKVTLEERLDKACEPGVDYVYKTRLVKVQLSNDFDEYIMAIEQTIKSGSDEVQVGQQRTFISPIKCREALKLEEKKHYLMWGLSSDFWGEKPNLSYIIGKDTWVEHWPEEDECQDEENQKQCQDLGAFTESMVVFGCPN

- EC50 hC3 cleavage: 42.2 nM
B1: MTSP-1 protease domain F97R/ins97aT/T98V/C122S/Q175M/Q192T/D217S (enzyme)
chain: VVGGTDADEGEWPWQVSLHALGQGHICGASLISPNWLVSAAHCYIDDRGFRYSDPTQWTAFLGLHDQSQRSAPGVQERRLKRIISHPFFNDRTVFDYDIALLELEKPAEYSSMVRPISLPDASHVFPAGKAIWVTGWGHTQYGGTGALILQKGEIRVINQTTCENLLPQMITPRMMCVGFLSGGVDSCTGDSGGPLSSVEADGRIFQAGVVSWGSGCAQRNKPGVYTRLPLFRDWIKENTGV

- EC50 hC3 cleavage: 256 nM
B2: MTSP-1 protease domain F97L/ins97aM/T98N/F99L/C122S/Q175T/Q192T/D217S (enzyme)
chain: B1 chain with R92L, T93M, V94N, F95L, M170T

- EC50 hC3 cleavage: 2400 nM
B3: MTSP-1 protease domain F97S/ins97aN/T98G/F99M/C122S/Q175T/Q192T/D217S (enzyme)
chain: B1 chain with R92S, T93N, V94G, F95M, M170T

- EC50 hC3 cleavage: 905 nM
B4: MTSP-1 protease domain F97V/ins97aH/T98R/F99L/C122S/Q175R/Q192G/D217S (enzyme)
chain: B1 chain with R92V, T93H, V94R, F95L, M170R, T189G

- EC50 of hC3 cleavage: 169 nM
B5: MTSP-1 Q38H/I41S/D60bT/F60eS/Y60gW/F97G/ins97aV/T98P/F99L/C122S/G151H/Q175L/Q192D (enzyme)
chain: VVGGTDADEGEWPWQVSLHALGHGHSCGASLISPNWLVSAAHCYIDTRGSRWSDPTQWTAFLGLHDQSQRSAPGVQERRLKRIISHPFFNDGVPLDYDIALLELEKPAEYSSMVRPISLPDASHVFPAGKAIWVTGWGHTQYGGTHALILQKGEIRVINQTTCENLLPQLITPRMMCVGFLSGGVDSCDGDSGGPLSSVEADGRIFQAGVVSWGDGCAQRNKPGVYTRLPLFRDWIKENTGV

- EC50 of hC3 cleavage: 1.45 nM
B6: MTSP-1 Q38H/I41S/D60bT/F60eS/Y60gW/D96K/F97G/ins97aV/T98P/F99L/C122S/G151H/Q175L (enzyme)
chain: B5 chain with D91K, D189Q

- EC50 of hC3 cleavage: 12 nM
B7: MTSP-1 Q38H/I41S/D60bT/F60eS/Y60gW/D96K/ins97aV/T98P/F99L/C122S/G151H/Q175L/Q192D (enzyme)
chain: B5 chain with D91K, G92F

- EC50 hC3 cleavage: 108 nM
B8: MTSP-1 protease domain I41G/F99L/C122S/G151N/Q175I/Q192T/D217T (enzyme)
chain: VVGGTDADEGEWPWQVSLHALGQGHGCGASLISPNWLVSAAHCYIDDRGFRYSDPTQWTAFLGLHDQSQRSAPGVQERRLKRIISHPFFNDFTLDYDIALLELEKPAEYSSMVRPISLPDASHVFPAGKAIWVTGWGHTQYGGTNALILQKGEIRVINQTTCENLLPQIITPRMMCVGFLSGGVDSCTGDSGGPLSSVEADGRIFQAGVVSWGTGCAQRNKPGVYTRLPLFRDWIKENTGV

- EC50 hC3 cleavage: 485 nM
B9: MTSP-1 protease domain I41E/F97A/F99M/C122S/G151N/Q175R/Q192S/D217E (enzyme)
chain: B8 chain with G26E, F92A, L94M, I169R, T188S, T214E

- EC50 of hC3 cleavage: 85.2 nM
B10: MTSP-1 I41D/C122S/G151N/Q192T (enzyme)
chain: B8 chain with G26D, L94F, I169Q, T214D

- EC50 hC3 cleavage: 25.5 nM
B11: MTSP-1 protease domain I41D/F97T/F99L/C122S/G151N/Q175S/D217A (enzyme)
chain: B8 chain with G26D, F92T, I169S, T188Q, T214A

- EC50 hC3 cleavage: 50.6 nM
B12: MTSP-1 protease domain I41D/F97R/F99L/C122S/Q175R/Q192V/D217L (enzyme)
chain: B8 chain with G26D, F92R, N145G, I169R, T188V, T214L

- EC50 hC3 cleavage: 19.4 nM
B13: MTSP-1 protease domain I41D/F97R/F99L/C122S/G151Q/Q175R/D217L (enzyme)
chain: B8 chain with G26D, F92R, N145Q, I169R, T188Q, T214L

- EC50 hC3 cleavage: 137 nM
B14: MTSP-1 protease domain F97R/F99L/C122S/G151Q/Q175R/Q192V/D217L (enzyme)
chain: B8 chain with G26I, F92R, N145Q, I169R, T188V, T214L

- EC50 hC3 cleavage: 42.3 nM
B15: MTSP-1 protease domain I41D/F97R/F99L/C122S/G151Q/Q192V/D217L (enzyme)
chain: B8 chain with G26D, F92R, N145Q, I169Q, T188V, T214L

- EC50 hC3 cleavage: 49.4 nM
B16: MTSP-1 protease domain I41E/F97V/F99L/C122S/G151N/Q175L/Q192S/D217H (enzyme)
chain: B8 chain with G26E, F92V, I169L, T188S, T214H

- EC50 hC3 cleavage: 31.6 nM
B17: MTSP-1 protease domain I41D/F99L/C122S/G151Q/Q175R/Q192V/D217L (enzyme)
chain: B8 chain with G26D, N145Q, I169R, T188V, T214L

- EC50 hC3 cleavage: 30.5 nM
B18: MTSP-1 protease domain I41D/F99L/C122S/G151N/Q175S/Q192T/D217A (enzyme)
chain: B8 chain with G26D, I169S, T214A

- EC50 hC3 cleavage: 16.5 nM
B19: MTSP-1 protease domain I41E/F97V/F99L/C122S/G151N/Q175L/D217H (enzyme)
chain: B8 chain with G26E, F92V, I169L, T188Q, T214H

- EC50 hC3 cleavage: 155 nM
B20: MTSP-1 protease domain I41G/F97S/F99L/C122S/Q175I/Q192T/D217T (enzyme)
chain: B8 chain with F92S, N145G

- EC50 hC3 cleavage: 88 nM
B21: MTSP-1 protease domain I41D/F97R/F99L/C122S/G151Q/Q175R/Q192V/D217L (enzyme)
chain: B8 chain with G26D, F92R, N145Q, I169R, T188V, T214L

- EC50 hC3 cleavage: 44.3 nM
B22: MTSP-1 protease domain I41E/F97V/F99L/C122S/Q175L/Q192S/D217H (enzyme)
chain: B8 chain with G26E, F92V, N145G, I169L, T188S, T214H

- EC50 hC3 cleavage: 42.2 nM
B23: MTSP-1 protease domain I41E/F97V/F99L/C122S/G151N/Q192S/D217H (enzyme)
chain: B8 chain with G26E, F92V, I169Q, T188S, T214H

- EC50 hC3 cleavage: 97.7 nM
B24: MTSP-1 protease domain I41G/F97S/F99L/C122S/G151N/Q175I/Q192T (enzyme)
chain: B8 chain with F92S, T214D

- EC50 hC3 cleavage: 79.4 nM
B25: MTSP-1 protease domain I41D/F97R/F99L/C122S/G151Q/Q175R/Q192V (enzyme)
chain: B8 chain with G26D, F92R, N145Q, I169R, T188V, T214D

- EC50 hC3 cleavage: 81.8 nM
B26: MTSP-1 protease domain I41G/F99L/C122S/Q175I/Q192T/D217T (enzyme)
chain: B8 chain with N145G

- EC50 hC3 cleavage: 91.6 nM
B27: MTSP-1 protease domain F97V/F99L/C122S/G151N/Q175L/Q192S/D217H (enzyme)
chain: B8 chain with G26I, F92V, I169L, T188S, T214H

- EC50 hC3 cleavage: 107 nM
B28: MTSP-1 protease domain I41G/F97S/F99L/C122S/G151N/Q175I/D217T (enzyme)
chain: B8 chain with F92S, T188Q

- EC50 hC3 cleavage: 860 nM
B29: MTSP-1 protease domain I41G/F97S/C122S/G151N/Q175I/Q192T/D217T (enzyme)
chain: B8 chain with F92S, L94F

- EC50 hC3 cleavage: 13 nM
B30: MTSP-1 protease domain I41E/F97R/F99L/C122S/G151Q/Q175G/Q192T/D217V (enzyme)
chain: B8 chain with G26E, F92R, N145Q, I169G, T214V

- EC50 hC3 cleavage: 56.7 nM
B31: MTSP-1 protease domain I41D/F97T/F99L/C122S/G151N/Q175S/Q192T (enzyme)
chain: B8 chain with G26D, F92T, I169S, T214D

- EC50 hC3 cleavage: 159 nM
B32: MTSP-1 protease domain I41R/F97T/F99L/C122S/G151N/Q175T/Q192T/D217I (enzyme)
chain: B8 chain with G26R, F92T, I169T, T214I

- EC50 hC3 cleavage: 3670 nM
B33: MTSP-1 protease domain F97Q/F99L/C122S/Q175N/Q192V/D217G (enzyme)
chain: B8 chain with G26I, F92Q, N145G, I169N, T188V, T214G

- EC50 hC3 cleavage: 70.9 nM
B34: MTSP-1 protease domain I41D/F97T/F99L/C122S/G151N/Q175S/Q192T/D217A (enzyme)
chain: B8 chain with G26D, F92T, I169S, T214A

- EC50 hC3 cleavage: 51.2 nM
B35: MTSP-1 protease domain I41E/F97V/F99L/C122S/G151N/Q175L/Q192S (enzyme)
chain: B8 chain with G26E, F92V, I169L, T188S, T214D

- EC50 hC3 cleavage: 70.4 nM
B36: MTSP-1 protease domain I41D/F97T/F99L/C122S/G151N/Q192T/D217A (enzyme)
chain: B8 chain with G26D, F92T, I169Q, T214A

- EC50 hC3 cleavage: 51.6 nM
B37: MTSP-1 protease domain I41G/F99L/C122S/G151N/Q175I/Q192T (enzyme)
chain: B8 chain with T214D

- EC50 hC3 cleavage: 131 nM
B38: MTSP-1 protease domain I41T/F97H/F99L/C122S/G151N/Q175H/Q192V/D217L (enzyme)
chain: B8 chain with G26T, F92H, I169H, T188V, T214L

- EC50 hC3 cleavage: 41.1 nM
B39: MTSP-1 protease domain I41E/F97R/F99L/C122S/G151Q/Q175G/Q192T (enzyme)
chain: B8 chain with G26E, F92R, N145Q, I169G, T214D

- EC50 hC3 cleavage: 105 nM
B40: MTSP-1 protease domain I41G/F97S/F99L/C122S/G151N/Q192T/D217T (enzyme)
chain: B8 chain with F92S, I169Q

- EC50 hC3 cleavage: 52.1 nM
B41: MTSP-1 protease domain I41D/F97T/F99L/C122S/Q175S/Q192T/D217A (enzyme)
chain: B8 chain with G26D, F92T, N145G, I169S, T214A

- EC50 hC3 cleavage: 44.7 nM
B42: MTSP-1 protease domain I41G/F99L/C122S/G151N/Q192T/D217T (enzyme)
chain: B8 chain with I169Q

- EC50 hC3 cleavage: 27.1 nM
B43: MTSP-1 protease domain I41E/F99L/C122S/G151N/Q175L/Q192S/D217H (enzyme)
chain: B8 chain with G26E, I169L, T188S, T214H
